Assay [1] concerns the target HLA-A*01:01. The assay can be described thus: IEDB peptide-MHC binding, purified MHC/direct/fluorescence; filed as Kd, often an IC50 or EC50 that approximates it; ≥ and ≤ were set here for values at or beyond the usual limits of such assays.
Assay [2] addresses HLA-A*11:01. The description is as above.
For assay [3], the target named is HLA-A*26:01. Described as above.
The target in assay [4] is HLA-A*31:01. The assay is described as above.
In assay [5] the target is HLA-A*68:02. The description is as above. The settings on record: source organism: Camelpox virus M-96.
The target of assay [6] is HLA-A*69:01. The assay is described as above.
Assay [7] addresses HLA-B*07:02. The description is as above.
Assay [8] addresses HLA-B*08:01. The assay is described as above.
Assay [9] concerns the target HLA-B*08:02. Described as above.
Assay [10] deals with HLA-B*15:09. Described as above.
The target of assay [11] is HLA-B*15:17. The description is as above. The settings on record: source organism: Camelpox virus M-96.
The target of assay [12] is HLA-B*18:01. The description is as above.
In assay [13] the target is HLA-B*27:05. The assay is described as above.
Assay [14] has as its target HLA-B*39:01. The description is as above.
Assay [15] has as its target HLA-B*40:01. Described as above.
In assay [16] the target is HLA-B*44:02. The assay is described as above.
Assay [17] addresses HLA-B*48:01. Described as above.
Assay [18] concerns the target HLA-B*57:01. The assay is described as above.
Assay [19] concerns the target HLA-B*58:01. The description is as above.
For assay [20], the target named is HLA-A*02:01. The assay can be described thus: IEDB peptide-MHC binding, purified MHC/competitive/fluorescence; filed as Kd, often an IC50 or EC50 that approximates it; ≥ and ≤ were set here for values at or beyond the usual limits of such assays. The settings on record: source organism: Vaccinia virus WR.
The target of assay [21] is HLA-A*02:01. Description: IEDB peptide-MHC binding, purified MHC/direct/fluorescence; filed as Kd, often an IC50 or EC50 that approximates it; ≥ and ≤ were set here for values at or beyond the usual limits of such assays.
For assay [22], the target named is HLA-A*03:01. The description is as above.
Assay [23] addresses HLA-B*15:01. The assay is described as above.
The target in assay [24] is HLA-B*46:01. The assay is described as above.
Assay [25] has as its target HLA-B*39:01. Description: IEDB peptide-MHC binding, purified MHC/competitive/fluorescence; filed as Kd, often an IC50 or EC50 that approximates it; ≥ and ≤ were set here for values at or beyond the usual limits of such assays.
The target of assay [26] is HLA-C*05:01. The assay can be described thus: IEDB peptide-MHC binding, purified MHC/direct/fluorescence; filed as Kd, often an IC50 or EC50 that approximates it; ≥ and ≤ were set here for values at or beyond the usual limits of such assays.
Assay [27] concerns the target HLA-A*29:02. The assay is described as above. The settings on record: source organism: West Nile virus.
For assay [28], the target named is HLA-C*03:03. Described as above.
For assay [29], the target named is HLA-A*02:11. The assay can be described thus: IEDB peptide-MHC binding, purified MHC/competitive/fluorescence; filed as Kd, often an IC50 or EC50 that approximates it; ≥ and ≤ were set here for values at or beyond the usual limits of such assays. The settings on record: source organism: Entamoeba histolytica HM-1:IMSS.
In assay [30] the target is HLA-A*02:19. Described as above. The settings on record: source organism: Entamoeba histolytica HM-1:IMSS.
For assay [31], the target named is HLA-A*03:01. The description is as above. The settings on record: source organism: Entamoeba histolytica HM-1:IMSS.
For assay [32], the target named is HLA-A*26:01. The description is as above. The settings on record: source organism: Entamoeba histolytica HM-1:IMSS.
Assay [33] concerns the target HLA-A*29:02. Described as above. The settings on record: source organism: Entamoeba histolytica HM-1:IMSS.
For assay [34], the target named is HLA-B*18:01. The description is as above. The settings on record: source organism: Entamoeba histolytica HM-1:IMSS.
Assay [35] addresses HLA-B*27:03. The description is as above. The settings on record: source organism: Entamoeba histolytica HM-1:IMSS.
Assay [36] deals with HLA-B*46:01. The description is as above. The settings on record: source organism: Entamoeba histolytica HM-1:IMSS.
Assay [37] addresses HLA-B*57:01. The description is as above. The settings on record: source organism: Entamoeba histolytica HM-1:IMSS.
The mark [38] stands for this setting: source organism: Camelpox virus M-96.
The mark [39] stands for this setting: source organism: Burkholderia mallei.
Setting [40] is: source organism: Burkholderia mallei ATCC 23344.
Setting [41] is: source organism: West Nile virus.
Where [42] appears, read: source organism: West Nile virus strain PTRoxo.
Where [43] appears, read: source organism: Bacillus thuringiensis str. Al Hakam.
Setting [44] is: source organism: Campylobacter jejuni subsp. jejuni NCTC 11168 = ATCC 700819.

In general, Kd refers to the equilibrium constant for the complex coming apart. For the sequence KELENEYYF, the Kd in assay [1] (setting [38]), in [2] (setting [38]), in assay [3] (source organism: Variola virus), in assay [4] (setting [38]), in assay [5] and in assay [6] (setting [38]) was no less than 20 µM in each case. Further, the Kd in [7] (setting [38]) was no less than 20 µM; in assay [8] (source organism: Variola virus), no less than 20 µM; in assay [9] (source organism: Variola virus), no less than 20 µM; in [10] (source organism: Variola virus), no less than 20 µM; in assay [11], no less than 20 µM; in [12] (setting [38]), 0.0198 µM. Also, the Kd in assay [13] (setting [38]) is no less than 20 µM; in assay [14] (source organism: Variola virus) it was no less than 20 µM; in assay [15] (setting [38]), 0.0183 µM; in [16] (setting [38]), no less than 20 µM; in assay [17] (setting [38]), no less than 20 µM; in [18] (setting [38]), no less than 20 µM. In addition, the Kd in [19] (setting [38]) and in assay [20] was no less than 20 µM each time.
Consider EARGKEKLL, for which the Kd in assay [1] (setting [39]), in assay [21] (setting [39]), in assay [22] (setting [39]), in assay [2] (setting [39]), in [3] (setting [40]) and in assay [7] (setting [39]) was no less than 20 µM in each case. The dissociation constant (Kd) in assay [8] (setting [40]) is 5.88 µM; in assay [9] (setting [40]), no less than 20 µM; in [23] (setting [39]) it was no less than 20 µM; in assay [10] (setting [40]) it was no less than 20 µM; in assay [13] (setting [39]), no less than 20 µM; in [15] (setting [39]), no less than 20 µM. Moreover, the Kd in assay [24] (setting [39]) and in assay [19] (setting [39]) was no less than 20 µM in each case.
Take GHGTVVLEL: the Kd in [1] (setting [41]), in assay [21] (setting [41]), in [22] (setting [41]), in assay [4] (setting [41]), in assay [6] (setting [41]) and in assay [7] (setting [41]) was no less than 20 µM in each case. Also, the Kd was no less than 20 µM in assay [23] (setting [41]); 4.55 µM in assay [10] (setting [42]); no less than 20 µM in assay [12] (setting [41]); no less than 20 µM in assay [13] (setting [41]); no less than 20 µM in [15] (setting [41]); no less than 20 µM in assay [16] (setting [41]). Moreover, the Kd is no less than 20 µM in [24] (setting [41]), no less than 20 µM in assay [18] (setting [41]), no less than 20 µM in assay [19] (setting [41]) and 0.0067 µM in assay [25] (source organism: Murray Valley encephalitis virus).
Consider YSAWGGYNL, for which the Kd came out at 4.18 µM in [26] (setting [43]) and 0.404 µM in assay [25] (setting [43]).
Take TEGEGRVIL: the Kd in assay [1] (setting [41]), in assay [21] (setting [41]), in assay [22] (setting [41]), in assay [2] (setting [41]), in assay [27] and in [4] (setting [41]) was no less than 20 µM throughout. The Kd in assay [6] (setting [41]) was no less than 20 µM; in assay [7] (setting [41]), no less than 20 µM; in assay [23] (setting [41]), no less than 20 µM; in assay [10] (setting [42]) it was no less than 20 µM; in [12] (setting [41]), 1.01 µM; in assay [13] (setting [41]), no less than 20 µM. Also, the dissociation constant (Kd) in assay [14] (setting [41]) is no less than 20 µM; in assay [15] (setting [41]) it was 0.0459 µM; in assay [16] (setting [41]), no less than 20 µM; in assay [24] (setting [41]) it was no less than 20 µM; in [17] (setting [41]), no less than 20 µM; in assay [18] (setting [41]) it was no less than 20 µM. For the same sequence, the equilibrium dissociation constant (Kd) in assay [19] (setting [41]) is no less than 20 µM.
Sequence YLVDCGAEL returned a Kd in assay [28] (source organism: Mycobacterium tuberculosis str. Haarlem) of no more than 0.001 µM.
With ILDTGTIQL, the results for the Kd in [28] (source organism: Homo sapiens) and in assay [26] (source organism: Homo sapiens) were 1.27 µM and 0.019 µM, respectively.
In the case of CLSPVVAGL, the dissociation constant Kd was no more than 0.0001 µM in [29]; 0.0008 µM in assay [30]; no less than 20 µM in [31]; no less than 20 µM in [32]; 0.219 µM in [33]; no less than 20 µM in assay [34]. Further, the dissociation constant Kd in assay [35], in [36] and in [37] was no less than 20 µM in each case.
For LLDEPTNHL, the Kd in assay [6] (source organism: Bacillus anthracis) came to 0.105 µM; in assay [28] (setting [44]) it was 2.91 µM; in [26] (setting [44]), 0.008 µM.
